{"source": "paper doi:10.1101/2022.10.12.511876", "key": {"[1]": {"target": "Mpf2Ba1 activated by WCR gut fluid (N-terminally cleaved after Lys25) (Pseudomonas monteilii)", "assay": "cryo-EM structure"}, "[2]": {"target": "Mpf2Ba1 activated by WCR gut fluid (N-terminally cleaved after Lys25) (Pseudomonas monteilii)", "assay": "cryo-EM structure", "remark": "listed apart in the source"}}, "note": "Where two headings read alike, the source gives them in different places."}
{"substance": "Mpf2Ba1 activated by WCR gut fluid (N-terminally cleaved after Lys25) (domain or fragment)", "values": [{"measurement": "stoichiometry N", "setting": "[1]", "value": 22}, {"measurement": "stoichiometry N", "setting": "[2]", "value": 21}]}
